Six molecules from patent publication US20250295803A1, “5T4 ANTIBODY-DRUG CONJUGATES AND USES THEREOF” (EXELIXIS, INC., priority 2022, published 2025) can be followed below.

In data set [1] the target is T1, unconjugated human TPBG/5T4 protein with a c-terminal polyhistidine and Avi tag (AcroBiosystems Cat. No. … (human, UniProt Q13641 32-355)).
T1 construct: Bought protein; also called Acro TPGH52E5; Acro Catalog No. TPGH52E; not shown: C-terminal polyhistidine and Avi tag
T1 sequence: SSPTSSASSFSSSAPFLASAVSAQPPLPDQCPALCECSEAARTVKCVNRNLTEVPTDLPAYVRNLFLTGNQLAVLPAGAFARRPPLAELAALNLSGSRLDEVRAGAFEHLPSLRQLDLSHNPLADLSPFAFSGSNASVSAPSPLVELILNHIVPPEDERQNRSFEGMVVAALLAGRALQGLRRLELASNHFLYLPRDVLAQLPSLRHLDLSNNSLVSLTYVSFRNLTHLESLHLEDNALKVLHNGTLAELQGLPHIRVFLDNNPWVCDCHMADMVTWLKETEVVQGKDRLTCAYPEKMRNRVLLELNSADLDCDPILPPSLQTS
Description: ELISA on coated human 5T4 His-Avi (Acro TPG-H52E5); antibody condition: PBS Time 0. The procedure: A. Normal Binding Unconjugated antibodies were tested for their ability to bind to human 5T4 (hu5T4) using ELISA. On Day 1, unconjugated human TPBG/5T4 protein with a c-terminal polyhistidine and Avi (AVITAG™) tag (AcroBiosystems (Newark, DE, USA), Cat. No. TPG-H52E5) was diluted 2 μg/mL in PBS, mixed thoroughly, plated 100 μL per well in a 96-well plate (Nunc MAXISORP®) and incubated overnight at 4° C.
3. Oxidative Stress. Several unconjugated antibodies were tested for their ability to bind to 5T4 using ELISA in an oxidative environment. Solutions of 1 mg/mL to 10 mg/mL of antibody in 20 mM citrate/50 mM NaCl at a pH of 5.5 were prepared and stored at 37° C. for 1 to 2 weeks.
On the technique in general: ELISA stands for enzyme-linked immunosorbent assay.

Data set [2] deals with T2, rat 5T4 on transfected HEK293 and CHO cells (rat, UniProt Q5PQV5 32-426).
T2 construct: whole, on cells
T2 sequence (looked up): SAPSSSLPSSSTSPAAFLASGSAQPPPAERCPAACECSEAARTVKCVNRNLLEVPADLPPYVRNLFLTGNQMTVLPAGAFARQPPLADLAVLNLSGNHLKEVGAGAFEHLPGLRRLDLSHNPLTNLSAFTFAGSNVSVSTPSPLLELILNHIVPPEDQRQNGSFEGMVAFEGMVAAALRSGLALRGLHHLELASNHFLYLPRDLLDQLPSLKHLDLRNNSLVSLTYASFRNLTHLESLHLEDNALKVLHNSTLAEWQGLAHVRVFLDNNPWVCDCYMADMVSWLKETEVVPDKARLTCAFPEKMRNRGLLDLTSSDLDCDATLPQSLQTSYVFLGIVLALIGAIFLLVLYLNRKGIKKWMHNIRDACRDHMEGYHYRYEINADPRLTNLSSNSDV
Nature of the data set: cell binding on transfected HEK293 and CHO cells.

Data set [3] has as its target T3, HEK293 and CHO cells transfected to express mouse 5T4 (Mus musculus, UniProt Q9Z0L0).
T3 construct: expressed in transfected cells; host or cells: HEK293 and CHO
T3 sequence (Q9Z0L0 32-426): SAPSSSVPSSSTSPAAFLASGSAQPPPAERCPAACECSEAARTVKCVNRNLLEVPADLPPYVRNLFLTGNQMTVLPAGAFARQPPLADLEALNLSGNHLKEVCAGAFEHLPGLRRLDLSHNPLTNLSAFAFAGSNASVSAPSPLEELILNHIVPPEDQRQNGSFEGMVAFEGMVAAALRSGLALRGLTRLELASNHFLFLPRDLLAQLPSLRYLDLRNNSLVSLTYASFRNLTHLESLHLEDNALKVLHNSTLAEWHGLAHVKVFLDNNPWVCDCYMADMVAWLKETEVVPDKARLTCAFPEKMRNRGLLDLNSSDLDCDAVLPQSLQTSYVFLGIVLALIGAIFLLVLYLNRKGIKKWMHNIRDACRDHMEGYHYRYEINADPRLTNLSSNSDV
Nature of the data set: Cell binding to transfected HEK293 and CHO cells, mouse 5T4. It counts as cell-based. The procedure:
(§1) Unconjugated antibodies were tested for their ability to bind to HEK293 and CHO cells transfected to express human, cyno, rat, or mouse 5T4.

In data set [4] the target is T4, HEK293 and CHO cells transfected to express human 5T4 (Homo sapiens, UniProt Q13641).
T4 construct: expressed in transfected cells; host or cells: HEK293 and CHO
T4 sequence (Q13641 32-420): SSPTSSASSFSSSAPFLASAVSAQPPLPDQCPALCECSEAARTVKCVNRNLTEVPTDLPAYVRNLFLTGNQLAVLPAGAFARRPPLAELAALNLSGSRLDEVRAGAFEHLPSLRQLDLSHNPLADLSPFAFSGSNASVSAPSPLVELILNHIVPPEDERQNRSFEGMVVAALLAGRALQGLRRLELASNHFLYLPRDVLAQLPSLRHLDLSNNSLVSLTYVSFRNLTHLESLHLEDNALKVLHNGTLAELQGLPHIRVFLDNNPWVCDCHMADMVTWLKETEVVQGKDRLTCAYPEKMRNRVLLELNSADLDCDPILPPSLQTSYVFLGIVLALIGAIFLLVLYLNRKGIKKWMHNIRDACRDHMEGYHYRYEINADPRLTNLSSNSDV
Description: Cell binding to transfected HEK293 and CHO cells, human 5T4. It counts as cell-based. The procedure:
as §1

A short description of data set [5]: Hydrophobic interaction chromatography (HIC) developability. The following applies: 1 mg/mL in Dulbecco's PBS pH 7.4. The data set is classed as physicochemical. The procedure:
Antibodies that were selected for binding to 5T4, such as those described in Examples 2 and 3, were tested by various methods to assess developability. For example, various chromatographic methods, including size exclusion chromatography (SEC), hydrophobic interaction chromatography (HIC), and standup monolayer adsorption chromatography (SMAC) were employed to assess factors, such as monomer percentage, solubility, and antibody aggregation or precipitation.
Hydrophobic interaction chromatography (HIC) analysis was performed using a 4.6 mm ID×3.5 cm TSKgel Butyl-NPR column (Tosoh Bioscience LLC, PN 14947) on an Agilent 1100 HPLC. Antibodies were normalized to 1 mg/mL concentration in Dulbecco's PBS (pH 7.4, without Ca^2+/Mg^2+). The column was equilibrated with 100% mobile phase Buffer A (2 M ammonium sulfate/20 mM sodium phosphate, pH 7.0) at a flow rate of 1 mL/minute at ambient temperature. For each sample, 10 μL was loaded and eluted using a gradient from 100% mobile phase buffer A to 100% mobile phase buffer B (20 mM sodium phosphate, pH 7.0) at 1.0 mL/minute over 15 minutes, held at 100% B for 3 minutes to wash the column, and returned 100% A for 2 minutes for equilibration. Absorbance was monitored at 280 nm. Sample retention time was calculated and compared to a set of standard controls to identify antibodies with increased retention time (increased hydrophobicity) and the presence of multiple species. Data analysis was performed using Agilent ChemStation B.04.03 SP1

For orientation: EC50 means the concentration giving half of the maximal effect.

B1: mAbA17 (antibody, V domains shown)
VH: EVQLVESGGGLVQPGGSLRLSCAASGFTFSRYWIHWVRQAPGKGLEWVAAIFPYSGSTLYADSVKGRFTISADTSKNTAYLQMNSLRAEDTAVYYCARSPSRSILPSGLDYWGQGTLVTVSS
VL: DIQMTQSPSSLSASVGDRVTITCRASQSVSSAVAWYQQKPGKAPKLLIYSASSLYSGVPSRFSGSRSGTDFTLTISSLQPEDFATYYCQQGDGSPYTFGQGTKVEIKR
notes: also called Antibody mAbA17
Take B1: the EC50 in data set [1] is 0.198 nM. Also, the binding result in data set [2] is recorded as “no binding”.

B2: mAbA4 (antibody, V domains shown)
VH: EVQLVESGGGLVQPGGSLRLSCAASGFTFSRYYIHWVRQAPGKGLEWVAFISPGGSYTYYADSVKGRFTISADTSKNTAYLQMNSLRAEDTAVYYCAREYYSMGVLDYWGQGTLVTVSS
VL: DIQMTQSPSSLSASVGDRVTITCRASQSVSSAVAWYQQKPGKAPKLLIYSASSLYSGVPSRFSGSRSGTDFTLTISSLQPEDFATYYCQQAYESPYTFGQGTKVEIKR
notes: also called Antibody mAbA4
Turning to B2, the EC50 in data set [1] came to 0.182 nM. The binding result in data set [2] was “no binding”.

B3: mAbA15 (antibody, V domains shown)
VH: EVQLVESGGGLVQPGGSLRLSCAASGFTFSSYYIHWVRQAPGKGLEWVAYITSTGSYTEYADSVKGRFTISADTSKNTAYLQMNSLRAEDTAVYYCARYDRSTRYSGLDYWGQGTLVTVSS
VL: DIQMTQSPSSLSASVGDRVTITCRASQSVSSAVAWYQQKPGKAPKLLIYSASSLYSGVPSRFSGSRSGTDFTLTISSLQPEDFATYYCQQAYATPVTFGQGTKVEIKR
notes: also called Antibody mAbA15
B3 had a concentration giving a half-maximal response (EC50) in data set [1] of 0.229 nM. Further, the binding result in data set [2] is given as “no binding”.

B4: mAbA17: 5T4 antibody comprising VH of SEQ ID NO:62 and VL of SEQ ID NO:63 (antibody, V domains shown)
VH: EVQLVESGGGLVQPGGSLRLSCAASGFTFSRYWIHWVRQAPGKGLEWVAAIFPYSGSTLYADSVKGRFTISADTSKNTAYLQMNSLRAEDTAVYYCARSPSRSILPSGLDYWGQGTLVTVSS
VL: DIQMTQSPSSLSASVGDRVTITCRASQSVSSAVAWYQQKPGKAPKLLIYSASSLYSGVPSRFSGSRSGTDFTLTISSLQPEDFATYYCQQGDGSPYTFGQGTKVEIK
modifications: Antibody mAbA17 VH Sequence; Antibody mAbA17 VL Sequence
As to B4, the “reactivity to cells transfected to express mouse 5T4” value (shortened to “reactivity … to express mouse 5T4”) in data set [3] is given as “not to cells transfected to express rat or mouse 5T4”. Also, the “reactivity to cells transfected to express human 5T4” value (“reactivity … to express human 5T4” for short) in data set [4] was “reactive”. In addition, the “developability based on HIC analysis” value in data set [5] is given as “strong developability”.

B5: mAbA4: 5T4 antibody comprising VH of SEQ ID NO:25 and VL of SEQ ID NO:26 (antibody, V domains shown)
VH: EVQLVESGGGLVQPGGSLRLSCAASGFTFSRYYIHWVRQAPGKGLEWVAFISPGGSYTYYADSVKGRFTISADTSKNTAYLQMNSLRAEDTAVYYCAREYYSMGVLDYWGQGTLVTVSS
VL: DIQMTQSPSSLSASVGDRVTITCRASQSVSSAVAWYQQKPGKAPKLLIYSASSLYSGVPSRFSGSRSGTDFTLTISSLQPEDFATYYCQQAYESPYTFGQGTKVEIK
modifications: Antibody mAbA4 VH Sequence; Antibody mAbA4 VL Sequence
Take B5: the “reactivity … to express mouse 5T4” value in data set [3] is reported as “not to cells transfected to express rat or mouse 5T4”. Also, the “reactivity … to express human 5T4” value in data set [4] is on record as “reactive”. For the same molecule, the “developability based on HIC analysis” value in data set [5] is “strong developability”.

B6: mAbA15: 5T4 antibody comprising VH of SEQ ID NO:44 and VL of SEQ ID NO:45 (antibody, V domains shown)
VH: EVQLVESGGGLVQPGGSLRLSCAASGFTFSSYYIHWVRQAPGKGLEWVAYITSTGSYTEYADSVKGRFTISADTSKNTAYLQMNSLRAEDTAVYYCARYDRSTRYSGLDYWGQGTLVTVSS
VL: DIQMTQSPSSLSASVGDRVTITCRASQSVSSAVAWYQQKPGKAPKLLIYSASSLYSGVPSRFSGSRSGTDFTLTISSLQPEDFATYYCQQAYATPVTFGQGTKVEIK
modifications: Antibody mAbA15 VH Sequence; Antibody mAbA15 VL Sequence
On to B6, for which the “reactivity … to express mouse 5T4” value in data set [3] is listed as “not to cells transfected to express rat or mouse 5T4”. Also, the “reactivity … to express human 5T4” value in data set [4] was “reactive”. Moreover, the “developability based on HIC analysis” value in data set [5] was “strong developability”.
